This is an account of results in publication PMC9019814.

In one test the target is alcohol dehydrogenase (UniProt P00330).
The target in another test is citrate synthase (UniProt P00889).
The target of test [1] is βB2-crystallin (calf (endogenous in calf lenses)) (UniProt P02522).
βB2-crystallin (calf (endogenous in calf lenses)), sequence (P02522 whole entry): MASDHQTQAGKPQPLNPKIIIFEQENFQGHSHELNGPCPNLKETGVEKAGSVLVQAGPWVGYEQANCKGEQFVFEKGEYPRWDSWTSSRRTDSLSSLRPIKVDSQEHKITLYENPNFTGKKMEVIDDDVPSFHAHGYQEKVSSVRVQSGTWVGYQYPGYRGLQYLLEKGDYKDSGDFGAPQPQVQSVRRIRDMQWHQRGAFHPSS

human wild-type αA-crystallin, sequence (P02489 whole entry): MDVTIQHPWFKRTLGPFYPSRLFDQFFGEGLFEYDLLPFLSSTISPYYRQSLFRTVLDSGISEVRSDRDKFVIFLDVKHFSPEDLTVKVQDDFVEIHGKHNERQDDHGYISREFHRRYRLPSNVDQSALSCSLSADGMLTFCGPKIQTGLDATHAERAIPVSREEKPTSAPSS
alcohol dehydrogenase, sequence (P00330 whole entry): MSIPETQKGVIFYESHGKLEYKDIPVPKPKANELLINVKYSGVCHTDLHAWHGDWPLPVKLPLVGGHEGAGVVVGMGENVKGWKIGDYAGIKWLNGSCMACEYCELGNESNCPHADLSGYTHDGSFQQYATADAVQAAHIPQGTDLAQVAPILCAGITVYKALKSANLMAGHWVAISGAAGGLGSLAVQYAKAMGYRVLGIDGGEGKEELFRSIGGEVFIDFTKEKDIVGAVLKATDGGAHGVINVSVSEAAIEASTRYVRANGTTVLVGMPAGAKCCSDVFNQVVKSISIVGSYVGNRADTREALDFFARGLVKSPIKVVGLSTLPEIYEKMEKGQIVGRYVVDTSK
citrate synthase, sequence (P00889 28-464): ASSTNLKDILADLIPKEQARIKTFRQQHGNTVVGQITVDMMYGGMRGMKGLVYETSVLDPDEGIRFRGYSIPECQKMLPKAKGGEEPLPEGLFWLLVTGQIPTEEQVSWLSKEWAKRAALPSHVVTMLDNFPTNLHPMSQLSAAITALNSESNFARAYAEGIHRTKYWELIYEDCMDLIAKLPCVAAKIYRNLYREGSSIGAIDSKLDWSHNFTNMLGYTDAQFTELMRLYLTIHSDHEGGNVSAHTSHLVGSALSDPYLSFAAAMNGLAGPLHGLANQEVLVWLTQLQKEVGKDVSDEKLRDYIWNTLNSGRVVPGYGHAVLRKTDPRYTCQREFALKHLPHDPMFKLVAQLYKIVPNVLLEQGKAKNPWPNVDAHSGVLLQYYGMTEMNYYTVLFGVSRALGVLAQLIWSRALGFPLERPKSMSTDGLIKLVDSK

Regarding “human wild-type αA-crystallin (from UniProt P02489 1-173) (natural protein)”, the EC50 of chaperone protein for suppression of EDTA-induced aggregation of ADH (250 µg in 1 ml) at 37°C, scattering at 360 nm at 60 min with alcohol dehydrogenase is 45 µg. Also, the amount of chaperone protein for fifty percent protection from thermal aggregation of CS (75 µg in 1 ml) at 43°C, scattering at 360 nm at 60 min with citrate synthase is 22 µg. The substance also returned an amount of chaperone protein that suppresses the aggregation of βB2-crystallin (250 µg in 1 ml) at 37°C by 50%, scattering at 360 nm at 60 min in test [1] of 30 µg.
